Assay results reported in US20110263454A1, “Methods of Identifying Functional Characteristics of Promoters, Transcription Modifying Proteins and Transcription Modulating Agents” (Salk Institute for Biological Studies, priority 2008, published 2011).

Columns and labels:
[1] = system: mUCP1 promoter; experiment: NHR-promoter luciferase screen, mUCP1 promoter; type: cell-based, mouse; settings: for Luc. act., normalized to lacZ / Normalized Luc. act., normalized to control: mUCP1 promoter reporter, co-transfected HR, with or without its ligand; for Normalized Luc. act., normalized to control: relative to control; for luciferase activity normalized to lacZ activity and to a control, mUCP!: mUCP! promoter-luciferase, CV-1 cells, NHR +/- ligand, control = 1.00
Experimental: (§1) The use, feasibility, and reproducibility of the functional NHR-promoter screen in a 48-well format have been tested validated. Briefly, there were co-expressed 50 ng of each NHR/NHR homodimer or NHR/RXR heterodimer with 100 ng promoter/luciferase construct and 50 ng of LacZ (as a control for transfection efficiency) in CV-1 cells using Fugene HD (Roche) as a transfection reagent (alternatively or additionally, a CMV-YFP construct can be used as a transfection control). Each of the nuclear hormone receptors that were used in these experiments was cloned into a pcDNA3.1 vector and comprised a C-terminally linked V5H6 tag. Twenty-four hours after transfection, appropriate ligands were added, where applicable, (see Table 5 for various ligands and concentrations and after 48 hrs, samples were assayed for luciferase and LacZ activity. To measure for luciferase activity 15 ul of sample was added to 30 ul of luciferase buffer (20 mM tricine, 1.07 mM MgCarbonate, 2.67 mM MgSulfate, 0.1 mM Naz-EDTA, 5 mM DTT, 5 mM ATP, 0.15 mg/ml CoA, 0.5 mM Luciferin), mixed briefly, and run in a Perkin Elmer Victor 5 luminometer. Thus, the functional NHR-promoter screen was used to observe the transcriptional activity of 29 promoters from various physiological pathways including inflammation, lipid and sugar metabolism, cholesterol transport, xenobiotic metabolism, and circadian rhythm.
(§2) The promoters that facilitate transcription of the indicated gene products that were tested using the protocols described herein are listed in the first row of the table. The nuclear hormone receptors and, where applicable, ligands that were assayed for their transcriptional effects on the promoters are listed in the first column of the table. The data represent the luciferase activity of each sample normalized to both the lacZ activity of that sample and to a control, e.g., no NHR or ligand, as customary in the art. As described previously, these normalizations allow the transcriptional activity of each reporter cell to be compared to other samples.
(§3) Tables 7-40 show the transcriptional effects of the hormone receptors, and, where applicable, ligands (orphan receptors are screened without ligand), on each individual promoter. […] The control data of each table are shown in their last rows.

[2] = system: mUCP2 promoter; experiment: NHR-promoter luciferase screen, mUCP2 promoter; type: cell-based, mouse; settings: for Luc. act., normalized to lacZ / Normalized Luc. act., normalized to control: mUCP2 promoter reporter, co-transfected HR, with or without its ligand; for Normalized Luc. act., normalized to control: relative to control; for luciferase activity normalized to lacZ activity and to a control, mUCP2: mUCP2 promoter-luciferase, CV-1 cells, NHR +/- ligand, control = 1.00
Experimental: as §1, §2, §3

[3] = system: hPOMC promoter; experiment: NHR-promoter luciferase screen, hPOMC promoter; type: cell-based, human; settings: for Luc. act., normalized to lacZ / Normalized Luc. act., normalized to control: hPOMC promoter, HR/ligand component; for hPOMC promoter reporter activity: transcription factor +/- ligand, control = 1.00
Experimental: as §1, §2, §3

[4] = system: hIRF7 promoter; experiment: NHR-promoter luciferase screen, hIRF7 promoter; type: cell-based, human; settings: for Normalized Luc. act., normalized to control / Luc. act., normalized to lacZ: IRF7 promoter reporter; for Normalized Luc. act., normalized to control: HR without or with its ligand, relative to control; for Luc. act., normalized to lacZ: hormone receptor (HR) without or with its ligand; for hIRF7 promoter reporter activity: transcription factor +/- ligand, control = 1.00
Experimental: as §1, §2, §3

[5] = system: hIFNg promoter; experiment: NHR-promoter luciferase screen, hIFNg promoter; type: cell-based, human; settings: for Luc. act., normalized to lacZ / Normalized Luc. act., normalized to control: IFNg promoter, HR component without or with ligand; for hIFNg promoter reporter activity: transcription factor +/- ligand, control = 1.00
Experimental: as §1, §2, §3

[6] = system: SREBP1c promoter; experiment: NHR-promoter luciferase screen, SREBP1c promoter; type: cell-based, mouse; settings: for Luc. act., normalized to lacZ / Normalized Luc. act., normalized to control: SREBP1c promoter, HR component without or with ligand; for mSREBP1-c promoter reporter activity: transcription factor +/- ligand, control = 1.00
Experimental: as §1, §2, §3

| Molecule | Luc. act., normalized to lacZ [1] | Normalized Luc. act., normalized to control [1] | luciferase activity normalized to lacZ activity and to a control, mUCP! [1] | Luc. act., normalized to lacZ [2] | Normalized Luc. act., normalized to control [2] | luciferase activity normalized to lacZ activity and to a control, mUCP2 [2] | Luc. act., normalized to lacZ [3] | Normalized Luc. act., normalized to control [3] | hPOMC promoter reporter activity [3] | Normalized Luc. act., normalized to control [4] | Luc. act., normalized to lacZ [4] | hIRF7 promoter reporter activity [4] | Luc. act., normalized to lacZ [5] | Normalized Luc. act., normalized to control [5] | hIFNg promoter reporter activity [5] | Luc. act., normalized to lacZ [6] | Normalized Luc. act., normalized to control [6] | mSREBP1-c promoter reporter activity [6] |
| --- | --- | --- | --- | --- | --- | --- | --- | --- | --- | --- | --- | --- | --- | --- | --- | --- | --- | --- |
| RORg: RAR-related Orphan Receptor γ (NR1F3), cDNA driver (protein, UniProt P51449 1-518, looked up) Nuclear receptor ROR-gamma: MDRAPQRQHRASRELLAAKKTHTSQIEVIPCKICGDKSSGIHYGVITCEGCKGFFRRSQRCNAAYSCTRQQNCPIDRTSRNRCQHCRLQKCLALGMSRDAVKFGRMSKKQRDSLHAEVQKQLQQRQQQQQEPVVKTPPAGAQGADTLTYTLGLPDGQLPLGSSPDLPEASACPPGLLKASGSGPSYSNNLAKAGLNGASCHLEYSPERGKAEGRESFYSTGSQLTPDRCGLRFEEHRHPGLGELGQGPDSYGSPSFRSTPEAPYASLTEIEHLVQSVCKSYRETCQLRLEDLLRQRSNIFSREEVTGYQRKSMWEMWERCAHHLTEAIQYVVEFAKRLSGFMELCQNDQIVLLKAGAMEVVLVRMCRAYNADNRTVFFEGKYGGMELFRALGCSELISSIFDFSHSLSALHFSEDEIALYTALVLINAHRPGLQEKRKVEQLQYNLELAFHHHLCKTHRQSILAKLPPKGKLRSLCSQHVERLQIFQHLHPIVVQAAFPPLYKELFSTETESPVGLSK | 2.8 | 0.6 | 0.62 | 169.5 | 1.5 | 1.54 | 2.1 | 0.5 | 0.50 | 1.7 | 44.4 | 1.69 | 17.9 | 1.1 | 1.12 | 644.8 | 2.0 | 2.00 |
| RARa: Retinoic acid receptor α (NR1B1), nuclear hormone receptor cDNA driver (protein, UniProt P10276 1-462, looked up) Retinoic acid receptor alpha: MASNSSSCPTPGGGHLNGYPVPPYAFFFPPMLGGLSPPGALTTLQHQLPVSGYSTPSPATIETQSSSSEEIVPSPPSPPPLPRIYKPCFVCQDKSSGYHYGVSACEGCKGFFRRSIQKNMVYTCHRDKNCIINKVTRNRCQYCRLQKCFEVGMSKESVRNDRNKKKKEVPKPECSESYTLTPEVGELIEKVRKAHQETFPALCQLGKYTTNNSSEQRVSLDIDLWDKFSELSTKCIIKTVEFAKQLPGFTTLTIADQITLLKAACLDILILRICTRYTPEQDTMTFSDGLTLNRTQMHNAGFGPLTDLVFAFANQLLPLEMDDAETGLLSAICLICGDRQDLEQPDRVDMLQEPLLEALKVYVRKRRPSRPHMFPKMLMKITDLRSISAKGAERVITLKMEIPGSMPPLIQEMLENSEGLDTLSGQPGGGGRDGGGLAPPPGSCSPSLSPSSNRSSPATHSP | 2.8 | 0.6 | 0.63 | 232.0 | 2.1 | 2.11 | 3.2 | 0.7 | 0.74 | 1.5 | 40.6 | 1.54 | 22.0 | 1.4 | 1.39 | 854.2 | 2.7 | 2.65 |
